Laboratory results taken from patent publication US20030232753A1.
Values joined by “and” are separate entries in the source; they are usually repeats but may differ in a detail not shown here. Equal values may be shown once. Read-outs that look alike come from different tables or passages of the source.

Key:
Assay in all cases: cell-based or functional assay
[1] = target: H6-N′-cys-tTF219 dimer (human) (UniProt P13726)
[2] = target: H6-tTF221-cys-C′ dimer (human) (UniProt P13726)
[3] = target: tTF219, truncated Tissue Factor (extracellular domain of mature Tissue Factor, amino acids 1-219) (human) (UniProt P13726)
H6-tTF221-cys-C′ (human) [4] = target: H6-tTF221-cys-C′ (human) (UniProt P13726)
H6-N′-cys-tTF219 (human) [5] = target: H6-N′-cys-tTF219 (human) (UniProt P13726)
[6] = target: tTF219, truncated Tissue Factor (extracellular domain of mature Tissue Factor, amino acids 1-219) (human) (UniProt P13726); remark: listed apart in the source
[7] = target: IgG-H6-N′-cys-tTF219 (human) (UniProt P13726)
H6-N′-cys-tTF219 (human) [8] = target: H6-N′-cys-tTF219 (human) (UniProt P13726); remark: listed apart in the source
tTF221-cys-C′ (human) = tTF221-cys-C′ (human) (UniProt P13726)
tTF220-cys-C′ (human) = tTF220-cys-C′ (human) (UniProt P13726)
H6-tTF220-cys-C′ (human) = H6-tTF220-cys-C′ (human) (UniProt P13726)
H6-tTF219-cys-C′ (human) = H6-tTF219-cys-C′ (human) (UniProt P13726)
[9] = target: tTF219, truncated Tissue Factor (extracellular domain of mature Tissue Factor, amino acids 1-219) (human) (UniProt P13726); remark: listed apart in the source
[10] = target: IgG-H6-N′-cys-tTF219 (human) (UniProt P13726); remark: listed apart in the source
H6-tTF221-cys-C′ (human) [11] = target: H6-tTF221-cys-C′ (human) (UniProt P13726); remark: listed apart in the source
[12] = target: tTF219, truncated Tissue Factor (extracellular domain of mature Tissue Factor, amino acids 1-219) (human) (UniProt P13726); remark: listed apart in the source

Sequence of IgG-H6-N′-cys-tTF219 (human) (P13726 other isoform, or with tags, fused parts or gaps limits assumed): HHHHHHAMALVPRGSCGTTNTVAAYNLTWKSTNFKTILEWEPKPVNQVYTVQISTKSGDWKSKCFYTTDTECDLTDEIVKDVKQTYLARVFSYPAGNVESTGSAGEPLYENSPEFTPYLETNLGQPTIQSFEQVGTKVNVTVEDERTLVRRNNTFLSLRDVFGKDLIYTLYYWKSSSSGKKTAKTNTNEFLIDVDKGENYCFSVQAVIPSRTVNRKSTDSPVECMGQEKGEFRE
Sequence of tTF219, truncated Tissue Factor (extracellular domain of mature Tissue Factor, amino acids 1-219) (human) (P13726 other isoform, or with tags, fused parts or gaps): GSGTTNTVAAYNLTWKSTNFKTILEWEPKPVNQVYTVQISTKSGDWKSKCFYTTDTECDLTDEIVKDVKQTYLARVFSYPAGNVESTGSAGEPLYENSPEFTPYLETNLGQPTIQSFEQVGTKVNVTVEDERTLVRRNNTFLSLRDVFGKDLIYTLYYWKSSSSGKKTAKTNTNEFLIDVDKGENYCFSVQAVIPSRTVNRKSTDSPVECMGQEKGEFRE
Sequence of H6-tTF221-cys-C′ (human) (P13726 other isoform, or with tags, fused parts or gaps limits assumed): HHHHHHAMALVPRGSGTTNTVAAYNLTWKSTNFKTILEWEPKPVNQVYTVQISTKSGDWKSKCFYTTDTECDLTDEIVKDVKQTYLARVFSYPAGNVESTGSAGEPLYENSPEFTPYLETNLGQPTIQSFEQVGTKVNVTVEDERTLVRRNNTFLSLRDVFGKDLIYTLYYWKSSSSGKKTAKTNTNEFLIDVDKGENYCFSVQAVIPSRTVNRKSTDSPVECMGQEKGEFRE
Sequence of tTF220-cys-C′ (human) (P13726 other isoform, or with tags, fused parts or gaps): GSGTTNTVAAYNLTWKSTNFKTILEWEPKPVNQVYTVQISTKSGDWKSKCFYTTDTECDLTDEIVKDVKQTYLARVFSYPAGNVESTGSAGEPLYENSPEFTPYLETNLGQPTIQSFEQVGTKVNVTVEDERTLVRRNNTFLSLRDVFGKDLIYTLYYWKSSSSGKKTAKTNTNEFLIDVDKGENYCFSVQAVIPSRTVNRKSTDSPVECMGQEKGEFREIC
Sequence of tTF221-cys-C′ (human) (P13726 other isoform, or with tags, fused parts or gaps): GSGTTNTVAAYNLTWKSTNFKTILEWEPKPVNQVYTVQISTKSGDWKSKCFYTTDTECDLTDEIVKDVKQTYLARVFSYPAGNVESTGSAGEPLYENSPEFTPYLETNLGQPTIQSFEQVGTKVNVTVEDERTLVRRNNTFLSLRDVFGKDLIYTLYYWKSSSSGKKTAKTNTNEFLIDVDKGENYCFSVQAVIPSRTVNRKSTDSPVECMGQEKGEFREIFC
Sequence of H6-tTF219-cys-C′ (human) (P13726 other isoform, or with tags, fused parts or gaps): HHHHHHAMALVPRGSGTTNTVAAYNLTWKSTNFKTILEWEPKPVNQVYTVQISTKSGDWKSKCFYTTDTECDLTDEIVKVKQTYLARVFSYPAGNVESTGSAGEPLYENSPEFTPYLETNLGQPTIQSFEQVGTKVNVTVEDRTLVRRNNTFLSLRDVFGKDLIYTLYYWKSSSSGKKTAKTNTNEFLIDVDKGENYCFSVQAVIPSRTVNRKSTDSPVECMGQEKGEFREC

B21-2/10H10 bispecific antibody (Fab′ arm of the B21-2 antibody, specific for I-A^d, linked to the Fab′ arm of the 10H10 antibody, specific for tTF)
tTF concentration giving coagulation in 50 seconds [1]: 100 pM and 200 pM | fold less active than H6-tTF221-cys-C′ monomer or tTF219 at inducing coagulation [2]: 4 fold | tTF concentration giving coagulation in 50 seconds [2]: 4 nM | tTF concentration giving coagulation in 50 seconds [3]: 100 pM and 200 pM | tTF concentration giving coagulation in 50 seconds (H6-tTF221-cys-C′ (human) [4]): 1 nM | tTF concentration giving coagulation in 50 seconds (H6-N′-cys-tTF219 (human) [5]): 1 nM | tTF concentration giving coagulation in 50 seconds [6]: 1 nM | fold reduction of coagulation inducing activity relative to unconjugated H6-N′-cys-tTF219 or tTF219 [7]: 5 fold | tTF concentration giving coagulation in 50 seconds [7]: 5 nM | tTF concentration giving coagulation in 50 seconds (H6-N′-cys-tTF219 (human) [8]): 3 nM | tTF concentration giving coagulation in 50 seconds (tTF221-cys-C′ (human)): 500 pM | tTF concentration giving coagulation in 50 seconds (tTF220-cys-C′ (human)): 500 pM | tTF concentration giving coagulation in 50 seconds (H6-tTF220-cys-C′ (human)): 500 pM | tTF concentration giving coagulation in 50 seconds (H6-tTF219-cys-C′ (human)): 3 nM | clotting time [9]: 60 s | clotting time (time for the first fibrin strands to form), mouse plasma on A20 cells [9]: 36 s | tTF concentration giving coagulation in 50 seconds [9]: 500 pM | fold less active than H6-N′-cys-tTF219 at inducing Xa formation [10]: 2 fold | tTF concentration giving coagulation in 50 seconds (H6-tTF221-cys-C′ (human) [11]): 500 pM | tTF concentration giving coagulation in 50 seconds [12]: 3 nM
